Measurements taken from US20140363438A1, “NEUREGULIN ANTIBODIES AND USES THEREOF” (Genentech, Inc., priority 2011, published 2014).
Where a chain is given by its changes, count along the chain named.

Legend:
[1] = target: T1, Recombinant human NRG1-α EGF domain (R&D Systems, cat#296-HR/CF) (human, UniProt Q02297 177-241); experiment: competition ELISA on NRG1α; competitor whose signal is read: 526.90
T1 construct: also called NRG1-alpha; HRG1α
T1 sequence: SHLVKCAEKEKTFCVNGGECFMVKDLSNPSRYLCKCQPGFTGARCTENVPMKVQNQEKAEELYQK

[2] = target: T2, Recombinant human NRG1-β ECD domain (R&D Systems, cat#377-HB/CF) (human, UniProt Q02297-11 121-191, limits assumed); experiment: SPR (BIAcore T100), IgG captured by anti-human Fc; table under the head '125nM NRG-beta'; this table is identical to that of FIG. 9 (NRG1-alpha) and does not fit the slow dissociation of the sensorgrams above it
T2 construct: also called NRG1-beta; HRG1β
T2 sequence: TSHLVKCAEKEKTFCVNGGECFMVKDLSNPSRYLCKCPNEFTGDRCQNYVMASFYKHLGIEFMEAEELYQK

[3] = target: EGF (UniProt P01133 971-1023); experiment: ELISA
[4] = target: T3, Betacellulin (BTC) (UniProt P35070 32-111); experiment: ELISA
T3 sequence (looked up): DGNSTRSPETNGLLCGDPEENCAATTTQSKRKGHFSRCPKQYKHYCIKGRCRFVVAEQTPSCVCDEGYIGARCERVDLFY

[5] = target: HB-EGF (UniProt Q99075 63-148, limits assumed); experiment: ELISA
[6] = target: T2, Recombinant human NRG1-β ECD domain …; experiment: competition ELISA on NRG1β; competitor whose signal is read: 526.02
[7] = target: T1, Recombinant human NRG1-α EGF domain …; experiment: SPR (BIAcore T100), IgG captured by anti-human Fc, NRG1α injected; sensorgram shown for 6.25 nM (sheet: '6.25 mnM NRG alpha')
Procedure: (§1) Binding affinities of anti-NRG1 IgGs were measured by Surface Plasmon Resonance (SRP) using a BIAcore™-T100 instrument. Anti-NRG1 human IgGs were captured by mouse anti-human Fc antibody (GE Healthcare, cat# BR-1008-39) coated on CM5 biosensor chips to achieve approximately 1000 response units (RU). […] Association rates (kₒₙ) and dissociation rates (koff) were calculated using a simple one-to-one Langmuir binding model (BIAcore Evaluation Software version 3.2). The equilibrium dissociation constant (KD) was calculated as the ratio koff/kₒₙ.

[8] = target: T1, Recombinant human NRG1-α EGF domain …; experiment: competition ELISA on NRG1α; competitor whose signal is read: 526.02
[9] = target: T1, Recombinant human NRG1-α EGF domain …; experiment: SPR (BIAcore T100), IgG captured by anti-human Fc, NRG1α injected; table under the head '250 nM NRG1-alpha'
Procedure: as §1

[10] = target: T2, Recombinant human NRG1-β ECD domain …; experiment: competition ELISA on NRG1β; self-competition, signal read: 538.24.71
[11] = target: T1, Recombinant human NRG1-α EGF domain …; experiment: cell-based or functional assay
[12] = target: T4, Recombinant human Neuregulin 1-beta (rhNRG1b, Genentech) (human, UniProt Q02297 1-640); experiment: cell-based or functional assay
T4 sequence: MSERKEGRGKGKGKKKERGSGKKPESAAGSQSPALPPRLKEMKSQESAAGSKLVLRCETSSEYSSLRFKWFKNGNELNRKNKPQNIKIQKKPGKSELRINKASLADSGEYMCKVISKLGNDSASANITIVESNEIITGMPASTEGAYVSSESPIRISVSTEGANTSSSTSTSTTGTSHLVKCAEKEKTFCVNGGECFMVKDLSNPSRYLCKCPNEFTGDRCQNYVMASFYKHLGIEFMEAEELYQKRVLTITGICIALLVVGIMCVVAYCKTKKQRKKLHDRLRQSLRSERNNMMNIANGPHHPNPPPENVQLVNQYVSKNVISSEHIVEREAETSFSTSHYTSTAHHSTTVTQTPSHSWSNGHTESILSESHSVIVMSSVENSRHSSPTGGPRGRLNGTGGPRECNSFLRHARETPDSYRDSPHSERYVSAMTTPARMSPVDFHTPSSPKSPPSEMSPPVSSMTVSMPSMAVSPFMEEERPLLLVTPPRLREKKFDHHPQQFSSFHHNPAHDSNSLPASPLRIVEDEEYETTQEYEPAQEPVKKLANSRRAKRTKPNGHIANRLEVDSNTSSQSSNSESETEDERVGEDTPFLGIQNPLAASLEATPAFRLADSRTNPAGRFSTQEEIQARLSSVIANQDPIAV

[13] = target: T2, Recombinant human NRG1-β ECD domain …; experiment: competition ELISA on NRG1β; competitor whose signal is read: 526.90
[14] = target: T1, Recombinant human NRG1-α EGF domain …; experiment: competition ELISA on NRG1α; self-competition, signal read: 538.24.71
[15] = target: T2, Recombinant human NRG1-β ECD domain …; experiment: SPR (BIAcore T100), IgG captured by anti-human Fc, NRG1β injected; sensorgram shown for 6.25 nM (sheet: '6.25 mnM NRG beta')
Procedure: as §1

[16] = target: T1, Recombinant human NRG1-α EGF domain …; experiment: SPR (BIAcore T100), IgG captured by anti-human Fc, 250 nM NRG1α injected; sensorgram
Procedure: as §1

[17] = target: T5, NRG1β (Homo sapiens, UniProt Q02297); experiment: Inhibition of 125I-HRG (NRG1β) binding to HER3-ECD-Fc; conditions: affinity matured clones of 538.24, FIG. 7
T5 sequence (Q02297 177-244 isoform Q02297-6 limits assumed): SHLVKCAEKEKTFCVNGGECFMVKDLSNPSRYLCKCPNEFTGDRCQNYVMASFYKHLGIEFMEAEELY
Procedure: The antibodies were tested for their ability to inhibit NRG1β binding to HER3-Fc. 125I-HRG was generated at Genentech as described previously (Sliwkowski et al JBC 1994). Binding assays were performed in Nunc break-apart strip wells (Thermo-Fisher Scientific, Rochester, N.Y.). Plates were coated at 4° C. overnight with 250 ng/well of HER3-ECD-Fc fusion protein in carbonate buffer (pH 9.6). Plates were rinsed twice with wash buffer (PBS/0.05% Tween 20) and blocked with 100 μL PBS including 1% bovine serum albumin (BSA) for 30 minutes. Increasing concentrations of anti-NRG1 antibodies in RPMI 1640 medium (Invitrogen; Carlsbad, Calif.) with 0.2% BSA were pre-bound to HER3-ECD-Fc. 125I-HRG (specific activity: 266 mCi/mg, 75,000 cpm/well) was added immediately after in a total assay volume of 130 μL. Plates were incubated for 2 hours at room temperature, rinsed twice, and individual wells were counted using a 100 Series Iso Data γ-counter. Samples were assayed in triplicates. Plotting was performed using KaleidaGraph 3.6 software. […]
The affinity matured variants were tested for their ability to block HRGβ binding to HER3-Fc. […] Plates were incubated for 2 hours at room temperature, rinsed twice, and individual wells were counted using a 100 Series Iso Data γ-counter. […]

[18] = target: T1, Recombinant human NRG1-α EGF domain …; experiment: competition ELISA on NRG1α; signal of 526.90 against rising 538.24.71

Sequence of HB-EGF (Q99075 63-148 limits assumed): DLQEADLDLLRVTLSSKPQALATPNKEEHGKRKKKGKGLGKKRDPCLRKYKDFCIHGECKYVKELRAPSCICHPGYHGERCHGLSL
Sequence of EGF (P01133 971-1023 limits assumed): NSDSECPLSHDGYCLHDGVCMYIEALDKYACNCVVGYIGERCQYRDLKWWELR

B1: anti-NRG1 antibody 538.24.71 (antibody, human IgG1, kappa, V domains shown)
VH: EVQLVESGGGLVQPGGSLRLSCAASGFTFSGTWIHWVRQAPGKGLEWVAAITPADGSTNYADSVKGRFTISADTSKNTAYLQMNSLRAEDTAVYYCATYMFAMDYWGQGTLVTVSS
VL: DIQMTQSPSSLSASVGDRVTITCRASQDVSISLAWYQQKPGKAPKLLIYGASNLESGVPSRFSGSGSGTDFTLTISSLQPEDFATYYCQQHYTLPFTFGQGTKVEIKR
notes: also called YW538.24.71
IC50 (read off the curve) [1]: ~4 nM | Kd [2]: 2 nM | koff [2]: 0.03 s⁻¹ | kon [2]: 1.5e+07 M⁻¹ s⁻¹ | binding result [3]: no binding | binding result [4]: no binding | binding result [5]: no binding | IC50 (read off the curve) [6]: ~2 nM | Kd [7]: 1.32 nM | koff [7]: 0.00603 s⁻¹ | kon [7]: 4.57e+06 M⁻¹ s⁻¹ | IC50 (read off the curve) [8]: ~5 nM | Kd [9]: 2 nM | koff [9]: 0.03 s⁻¹ | kon [9]: 1.5e+07 M⁻¹ s⁻¹ | IC50 (read off the curve) [10]: ~7 nM | IC50 of inhibition of Her3 activation (phosphorylation), KIRA on MCF-7 cells, 0.5 nM rhNRG1a [11]: 14 nM | IC50 of inhibition of Her3 activation (phosphorylation), KIRA on MCF-7 cells, 0.2 nM rhNRG1b [12]: 0.12 nM | IC50 (read off the curve) [13]: ~8 nM | IC50 (read off the curve) [14]: ~3 nM | Kd [15]: 0.00192 nM | koff [15]: 1.48e-06 s⁻¹ | kon [15]: 771000 M⁻¹ s⁻¹

B2: 538.24.38 (antibody, V domains shown)
VH: B1 VH
VL: DIQMTQSPSSLSASVGDRVTITCRASQDVSTAVAWYQQKPGKAPKLLIYSASFLYSGVPSRFSGSGSGTDFTLTISSLQPEDFATYYCQQSYTIPMTFGQGTKVEIK
notes: also called YW538.24.38; copies: 2 + 2
binding result [16]: binds

B3: 538.24.38: affinity matured variant of 538.24; VH SEQ ID NO: 21, VL SEQ ID NO: 25 (antibody, V domains shown)
VH: B1 VH
VL: B1 VL with I31T, S32A, L33V, G50S, N53F, E55Y, H91S, L94I, F96M
modifications: Heavy chain variable region; Light chain variable region
blocking of 125I-NRG1β binding to Her3 [17]: All but 538.24.38 are highly effective in blocking binding

B4: anti-NRG1 antibody 526.90 (antibody, human IgG1, V domains shown)
VH: EVQLVESGGGLVQPGGSLRLSCAASGFTFSGNAMSWVRQAPGKGLEWVSWIYPSGGNTYYADSVKGRFTISADTSKNTAYLQMNSLRAEDTAVYYCARSYILSYPSITWAFDYWGQGTLVTVSS
VL: DIQMTQSPSSLSASVGDRVTITCRASQSISSYLAWYQQKPGKAPKLLIYGASSRASGVPSRFSGSGSGTDFTLTISSLQPEDFATYYCQQSYSTPITFGQGTKVEIKR
notes: also called YW526.90
binding result [18]: binds
